In patent publication US20100196361A1, “Method of inhibition of vascular development using an antibody” (DYAX CORP., priority 2003, published 2010):
Substitutions are numbered along the chain they refer to.

Key:
[1] = target: T1, human Tie1 Fc (Homo sapiens, UniProt P35590); experiment: BIAcore, Tie1 Fc over IgG coated on CM5 chip; format: binding; settings: IgG immobilised; Human Tie1 Fc analyte
T1 construct: selected against the Tie1 extracellular domain fused to human Fc or to a histidine purification tag
T1 sequence (P35590 22-759 limits assumed): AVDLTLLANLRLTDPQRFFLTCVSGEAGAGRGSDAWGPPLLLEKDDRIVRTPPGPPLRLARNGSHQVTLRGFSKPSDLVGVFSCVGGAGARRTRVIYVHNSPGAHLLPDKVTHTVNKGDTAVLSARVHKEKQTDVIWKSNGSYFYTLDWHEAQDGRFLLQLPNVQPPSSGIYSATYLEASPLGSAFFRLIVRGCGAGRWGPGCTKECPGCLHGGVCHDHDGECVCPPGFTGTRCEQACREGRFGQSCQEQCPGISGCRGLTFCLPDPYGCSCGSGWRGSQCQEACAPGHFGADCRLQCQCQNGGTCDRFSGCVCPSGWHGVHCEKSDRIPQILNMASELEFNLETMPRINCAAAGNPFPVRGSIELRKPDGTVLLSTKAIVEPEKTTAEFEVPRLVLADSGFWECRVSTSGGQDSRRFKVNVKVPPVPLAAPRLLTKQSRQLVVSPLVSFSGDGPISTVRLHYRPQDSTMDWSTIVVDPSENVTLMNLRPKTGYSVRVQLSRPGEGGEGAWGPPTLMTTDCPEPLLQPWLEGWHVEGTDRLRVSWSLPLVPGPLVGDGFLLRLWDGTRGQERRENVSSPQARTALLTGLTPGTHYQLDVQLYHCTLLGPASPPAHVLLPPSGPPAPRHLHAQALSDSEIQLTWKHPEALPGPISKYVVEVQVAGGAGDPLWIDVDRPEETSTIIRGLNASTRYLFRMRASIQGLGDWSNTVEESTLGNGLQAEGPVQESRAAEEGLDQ
Method: The germlined E3 IgG1 stock solution 0.63 mg/ml was diluted 1/50 in a buffer of pH4.5 and the parental E3 IgG1 stock solution 0.56 mg/ml (2143-001) was diluted 1/50 in a buffer of pH 4.5. The IgG were directly coated onto a CM5 chip. The surface of the chips was activated with a 7 minute pulse of 0.05M NHS/0.2M EDC and the IgG was flowed over until 780RU germlined E3-IgG and 728 non germlined E3 IgG was coated onto the surface. All flow cells were subsequently deactivated with a 7 minute pulse of 1M ethanolamine hydrochloride pH 8.5. All analysis was performed in HBS buffer. Purified recombinant human Tie1 Fc was diluted 1/28.7 in HBS to obtain a 400 nM stock solution. Serial dilutions were made to obtain 200 nM, 100 nM, 50 nM and 25 nM Tie1 Fc stocks. For analysis of the association phase samples were injected at 30 μl/min for 8.3 minutes using kinject program. This was followed by a 40 minutes dissociation phase. Any antigen remaining associated to the surface was stripped from the IgG surface at a flow of 50 μl/min with two injections of 10 mM glycine pH 1.5 for 30 seconds. All samples were run and analyzed in duplicate
Sensorgrams were analyzed using the simultaneous ka/kd fitting program with 1:1 model in the BIAEVALUATION™ software 3.1.

[2] = target: T1, human Tie1 Fc; experiment: ELISA on recombinant Tie1-Fc; format: binding; settings: soluble Fab 5 or 1 μg per 100 μl; 500 or 50 ng antigen per well
Method: To evaluate if the conversion of any of the somatic mutations in the framework of E3 back to germline residues had any effect on binding activity the soluble Fabs were produced. The soluble expression vector containing the parental E3 Fab and the germlined E3 Fab construct were grown overnight at 30° C. in 2×TY broth containing 100 μg/ml ampicillin and 2% glucose and use 4 ml of this overnight culture to inoculate 400 ml of 2×TY broth containing 100 μg/ml ampicillin and 0.1% glucose. Cells were grow at 37° C. until an OD600 of 0.8-1.0, 1 mM IPTG was added and the culture was maintained at 30° C. for 4 hours. The cultures were spun down at 4,000 rpm for 15 min at 4 C. […] Dialyze against PBS using dialysis cassettes (SLIDE-A-LYSER™ Dialysis Cassettes, MWCO 10,000, Pierce, cat. no. 66380) and determine the protein concentration from the absorbance at 280 nm assuming that a 1 mg/ml solution has an absorbance of 0.86. The quality of the preparations can be analyzed by reducing and non-reducing SDS-PAGE.
Wells of an IMMULON™ 2 HB plate coated overnight with 500 ng or 50 ng of purified recombinant human Tie1-Fc target antigen per 100 microliters 0.1 M sodium bicarbonate buffer, pH 8.5. […] After washing the wells seven times 100 microliters TMB-H2O2 solution was added to each well and the plate read at 630 nm in an ELISA.

B1: E3: human anti-Tie1 antibody from phage Fab library, reformatted as IgG; HC variable SEQ ID NO:114, LC variable SEQ ID NO:116 (antibody, V domains shown)
VH: EVQLLESGGGLVQPGGSLRLSCAASGFTFSMYGMVWVRQAPGKGLEWVSVISPSGGNTGYADSVKGRFTISRDNSKNTLYLQVNSLRAEDTAVYYCARAPRGYSYGYYYWGQGTLVTVSSASTKGPSVFPLAPSSKSTSGG
VL: DIQMTQSPLSLSASVGDRVTITCRASQGIGHYLAWYQQKPGKVPKLLIYTASTLQSGVPSRFSGSGSGTDFTLTINSLQPEDVATYYCQQFNSYPHTFGQGTRLDIK
modifications: IgG constant regions; Synthetically generated peptide
- koff [1]: 3.61e-05 s⁻¹
- kon [1]: 6190 M⁻¹ s⁻¹

B2: DX-2210: E3 antibody in which the light chain has been germlined (antibody, V domains shown)
VH: B1 VH
VL: B1 VL with L9S, N76S, D105E
- koff [1]: 3.67e-05 s⁻¹
- kon [1]: 7090 M⁻¹ s⁻¹

B3: parental E3 Fab: soluble Fab fragment of the parental E3 anti-Tie1 antibody (antibody, V domains shown)
VH: B1 VH
VL: B1 VL
- binding to recombinant human Tie1-Fc in ELISA [2]: bound to the recombinant human Tie1-Fc target antigen

B4: germlined E3 Fab: soluble Fab of E3 with LC framework regions germlined to DPK4; LC variable SEQ ID NO:159 (antibody, V domains shown)
VH: B1 VH
VL: B1 VL with L9S, N76S, D105E
- binding to recombinant human Tie1-Fc in ELISA [2]: bound to the recombinant human Tie1-Fc target antigen
